# Test results published in PMC314469, “Protein Interaction Networks by Proteome Peptide Scanning” (PLoS Biology, 2004).
# T1: Boi1 SH3 (BOI1_YEAST), P38041
# T1 chain: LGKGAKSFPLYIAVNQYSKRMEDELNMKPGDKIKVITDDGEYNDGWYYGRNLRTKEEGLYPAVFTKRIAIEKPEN
# T2: Boi2 SH3 (BOI2_YEAST), P39969
# T2 chain: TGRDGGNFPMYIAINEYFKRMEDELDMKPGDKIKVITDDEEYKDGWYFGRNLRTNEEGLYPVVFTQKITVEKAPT
# T3: Myo5 SH3 (MYO5_YEAST), Q04439
# T3 chain: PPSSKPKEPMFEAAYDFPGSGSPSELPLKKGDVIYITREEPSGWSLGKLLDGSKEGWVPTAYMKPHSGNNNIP
# T4: Rvs167 SH3 (RV167_YEAST), P39743
# T4 chain: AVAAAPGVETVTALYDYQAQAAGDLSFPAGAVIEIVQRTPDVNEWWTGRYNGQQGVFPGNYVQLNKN
# T5: Yfr024 SH3 (LSB3_YEAST), P43603
# T5 chain: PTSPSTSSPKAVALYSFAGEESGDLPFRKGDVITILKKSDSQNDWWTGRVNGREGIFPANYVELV
# T6: Yhr016c SH3 (YSC84_YEAST), P32793
# T6 chain: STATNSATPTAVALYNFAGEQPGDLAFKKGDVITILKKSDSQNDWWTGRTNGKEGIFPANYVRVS
# Experiments:
# Test in all cases: SPOT array
# [1] = biological target: T1, Boi1 SH3 (BOI1_YEAST), P38041
# [2] = biological target: T2, Boi2 SH3 (BOI2_YEAST), P39969
# [3] = biological target: T3, Myo5 SH3 (MYO5_YEAST), Q04439
# [4] = biological target: T4, Rvs167 SH3 (RV167_YEAST), P39743
# [5] = biological target: Sho1 SH3 (SHO1_YEAST), P40073
# [6] = biological target: T5, Yfr024 SH3 (LSB3_YEAST), P43603
# [7] = biological target: T6, Yhr016c SH3 (YSC84_YEAST), P32793
# Sho1 SH3 (SHO1_YEAST), P40073, sequence (P40073 295-366): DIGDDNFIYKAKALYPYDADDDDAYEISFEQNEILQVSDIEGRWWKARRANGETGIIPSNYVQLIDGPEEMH
"normalised SPOT signal, Boehringer light units (BLU); mean over the file's lines of this peptide [1]","normalised SPOT signal, Boehringer light units (BLU); mean over the file's lines of this peptide [2]","normalised SPOT signal, Boehringer light units (BLU); mean over the file's lines of this peptide [3]","normalised SPOT signal, Boehringer light units (BLU); mean over the file's lines of this peptide [4]","normalised SPOT signal, Boehringer light units (BLU); mean over the file's lines of this peptide [5]","normalised SPOT signal, Boehringer light units (BLU); mean over the file's lines of this peptide [6]","normalised SPOT signal, Boehringer light units (BLU); mean over the file's lines of this peptide [7]",Binder
268,27.9,300,85.3,106,862,71.1,LIWHKNKPTKPDNK [YBL101W-B 1606-1619]
2820,18.9,199,34.1,46.9,58.4,32.8,LDTHKESPLRPKVR [YKR003W 305-318]
178,41.3,268,72.9,8000,348,78.8,LDSMKNLPLNPSKK [YDL027C 309-322]
110,0,135,114,78.8,64.1,14.8,LEFPKDYPLSPPKL [YMR022W 58-71]
152,21.8,518,144,350,3640,488,LKDNRLLPSWPKRG [YIL047C 206-219]
139,30.5,354,71.9,106,1320,73,LIWHKSKPVKPTNK [YBL005W-B 1591-1604]
4730,10.8,232,34.3,131,157,32.3,LDVRRIYPKGPLLV [YIL113W 50-63]
120,29.2,155,102,82.2,587,94.9,LIWHKNKPTEPDNK [YAR009C 1032-1045]
281,25.5,170,139,15.8,342,426,LFGIRNNPFIPITG [YLR214W 271-284]
59.1,4.9,89.2,66.6,18.8,42.8,15.7,LFDEKVKPQIPQLR [YML034W 45-58]
72.6,52.5,122,64.8,11.2,21.4,26.8,LGSEKSSPLAPAVA [YDL197C 382-395]
1870,25.8,406,39.5,45.5,47.5,16.8,LKHTKNKPKNPDTA [YGL131C 1018-1031]
139,21.9,136,17.5,7.7,126,19.3,LITDKEYPVRPAYT [YKL196C 79-92]
133,71.6,428,81.1,227,213,150,LGPLKYAPHLPFSK [YJL176C 589-602]
180,15.1,168,16.5,10800,49,44.6,LGLHKWLPDIPLFE [YOR336W 752-765]
15.5,47.9,154,28.2,36,12.7,2,LIDFKDYPDVPKVP [YNL231C 198-211]
